Data taken from publication PMC10418658, “Biochemical and Structural Insights into a Thiamine Diphosphate-Dependent α-Ketoglutarate Decarboxylase from Cyanobacterium Microcystis aeruginosa NIES-843” (International Journal of Molecular Sciences, 2023).

Experiments:
Assay in all cases: purified protein
purified protein [1] = substrate: O=C(O)CCC(=O)C(=O)O; assay type: biochemical, Synechocystis sp. PCC 6803; conditions: saturated ThDP and Mg2+; purified from coexpression with pTf16
purified protein [2] = substrate: Cc1ncc(C[n+]2csc(CCO[P@](=O)(O)OP(=O)(O)O)c2C)c(N)n1; conditions: half-saturation of activity, varied: cofactor
purified protein [3] = substrate: O=C(O)CCC(=O)C(=O)O; assay type: biochemical, Microcystis aeruginosa; conditions: 1 mM ThDP, 2 mM Mg2+, 100 mM HEPES pH 7.0, 10% glycerol, 25 °C
purified protein [4] = substrate: Cc1ncc(C[n+]2csc(CCO[P@](=O)(O)OP(=O)(O)O)c2C)c(N)n1; assay type: biochemical, Microcystis aeruginosa; conditions: 10 mM α-ketoglutarate, 2 mM Mg2+, 100 mM HEPES pH 7.0, 10% glycerol, 25 °C, varied: cofactor

B1: StKGD (Synechocystis sp. PCC 6803 substr. Kazusa) (protein)
chain: MGQMNTADLLVQCLENEDVEYIFGVPGEENLHILEALKNSPIRFITTRHEQGAAFMADVYGRLTGKAGVCLSTLGPGATNLMTGVADANLDGAPLVAITGQVGTDRMHIESHQYLDLVAMFDPVTKWTRQIVRPSITPEVVRKAFKLAQSEKPGATHIDLPENIAAMPVDGKPLRRDSREKVYAAFRTLGTAANAISKAKNPIILAGNGTIRAEASEALTEFATSLNIPVANTFMGKGTMPYTHPLSLWTVGLQQRDHITCAFEKSDLVIAVGYDLIEYSPKKWNPTGDLPIIHIGATPAEIDSSYIPQVEVVGDITDSLMDLLKRCDRQGKPTPYGASLRAEIRAEYECYANDTGFPVKPQKIIYDLRQVMGPDDVVISDVGAHKMWMARHYHCDSPNTCLISNGFAAMGIAIPGAIAAKLVYPERNIVAVTGDGGFMMNCQELETAMRVGTPFVTLIFNDNGYGLIEWKQINQFGESSFIKFGNPDFVKFAESMGLKGYRVEAAADLIPILKEALAQPVPTVIDCPVDYRENIRFSQKAGELACEIWE
notes: recombinant, coexpressed with chaperone plasmid pTf16 and purified again in this study
B1 gave a Km (purified protein [1]) of 3830 ± 750 µM, a kcat (purified protein [1]) of 3.07 ± 0.42 s⁻¹ and a kcat/Km (purified protein [1]) of 800 M⁻¹ s⁻¹. For the same protein, the K0.5 (purified protein [2]; purified from coexpression with pTf16) was 0.063 ± 0.019 mM.

B2: MaKGD (Microcystis aeruginosa NIES-843) (protein)
chain: MGELNTAELLVKCLENEGVEYIFGLPGEENLDVLEALKNSSIKFITTRHEQGAAFMADVYGRLTGKAGVCLSTLGPGATNLMTGVADANLDGAPLVAITGQVGTDRMHIESHQYLDLVAMFAPVTKWNKQIVRPGITPEVVRRAFKTAQSEKPGAVHIDLPENIAAMAADGHPLPLDSQEKVYASYRTLNMAAAVISKAKNPLILAGNGAIRANASEALTEFATALNIPVANTFMGKGVIPYTHPLALWAVGLQQRDLISCAFERSDLIIAVGYDLIEYSPKKWNPDGKLPIIHIGMTPAEIDSSYAPVVEVVGDITDSLIDILKRADRQNKPTPVTAGLKTEIRADYETYANDTGFPIKPQKLIYDLRQVMGPEDIAICDVGAHKMWMARQYHSDCPNTCIISNGFAAMGIAIPGAIAAKLVYPNKRIVAVTGDGGFMMNCQELETALRVGTPFVTLIFNDGGYGLIEWKQLNYFGTSSFIKFGNPDFVKFAESMGLKGYRVESTQDLIPTLEEAFRQEVPTVIDVPVDYGENLRLSQKSGDLSCQIWE
notes: full length, pET28a (NdeI/XhoI), E. coli BL21(DE3) with chaperone plasmid pTf16, imidazole-eluted; codon-optimised gene
B2 gave a K0.5 (purified protein [2]; 10 mM α-ketoglutarate, 2 mM Mg2+, 100 mM HEPES pH 7.0, 10% glycerol, 25 °C, pH 7.0, 25.0 °C) of 0.0056 ± 0.0007 mM, a Km (purified protein [3]) of 870 ± 230 µM and a kcat (purified protein [3]) of 7.8 ± 0.5 s⁻¹. The kcat/Km (purified protein [3]) was 8970 M⁻¹ s⁻¹.

B3: MaKGD (Microcystis aeruginosa NIES-843; D462E) (protein)
chain: MGELNTAELLVKCLENEGVEYIFGLPGEENLDVLEALKNSSIKFITTRHEQGAAFMADVYGRLTGKAGVCLSTLGPGATNLMTGVADANLDGAPLVAITGQVGTDRMHIESHQYLDLVAMFAPVTKWNKQIVRPGITPEVVRRAFKTAQSEKPGAVHIDLPENIAAMAADGHPLPLDSQEKVYASYRTLNMAAAVISKAKNPLILAGNGAIRANASEALTEFATALNIPVANTFMGKGVIPYTHPLALWAVGLQQRDLISCAFERSDLIIAVGYDLIEYSPKKWNPDGKLPIIHIGMTPAEIDSSYAPVVEVVGDITDSLIDILKRADRQNKPTPVTAGLKTEIRADYETYANDTGFPIKPQKLIYDLRQVMGPEDIAICDVGAHKMWMARQYHSDCPNTCIISNGFAAMGIAIPGAIAAKLVYPNKRIVAVTGDGGFMMNCQELETALRVGTPFVTLIFNEGGYGLIEWKQLNYFGTSSFIKFGNPDFVKFAESMGLKGYRVESTQDLIPTLEEAFRQEVPTVIDVPVDYGENLRLSQKSGDLSCQIWE
notes: as for B2
With B3 the K0.5 (purified protein [4]) was 0.761 ± 0.143 mM, the Km (purified protein [3]) was 2380 ± 630 µM and the kcat (purified protein [3]) was 9 ± 0.47 s⁻¹.

B4: MaKGD (Microcystis aeruginosa NIES-843; D435E) (protein)
chain: MGELNTAELLVKCLENEGVEYIFGLPGEENLDVLEALKNSSIKFITTRHEQGAAFMADVYGRLTGKAGVCLSTLGPGATNLMTGVADANLDGAPLVAITGQVGTDRMHIESHQYLDLVAMFAPVTKWNKQIVRPGITPEVVRRAFKTAQSEKPGAVHIDLPENIAAMAADGHPLPLDSQEKVYASYRTLNMAAAVISKAKNPLILAGNGAIRANASEALTEFATALNIPVANTFMGKGVIPYTHPLALWAVGLQQRDLISCAFERSDLIIAVGYDLIEYSPKKWNPDGKLPIIHIGMTPAEIDSSYAPVVEVVGDITDSLIDILKRADRQNKPTPVTAGLKTEIRADYETYANDTGFPIKPQKLIYDLRQVMGPEDIAICDVGAHKMWMARQYHSDCPNTCIISNGFAAMGIAIPGAIAAKLVYPNKRIVAVTGEGGFMMNCQELETALRVGTPFVTLIFNDGGYGLIEWKQLNYFGTSSFIKFGNPDFVKFAESMGLKGYRVESTQDLIPTLEEAFRQEVPTVIDVPVDYGENLRLSQKSGDLSCQIWE
notes: as for B2
Work on B4 yielded a K0.5 (purified protein [4]) of 0.041 ± 0.003 mM.

B5: MaKGD (Microcystis aeruginosa NIES-843; M410A) (protein)
chain: MGELNTAELLVKCLENEGVEYIFGLPGEENLDVLEALKNSSIKFITTRHEQGAAFMADVYGRLTGKAGVCLSTLGPGATNLMTGVADANLDGAPLVAITGQVGTDRMHIESHQYLDLVAMFAPVTKWNKQIVRPGITPEVVRRAFKTAQSEKPGAVHIDLPENIAAMAADGHPLPLDSQEKVYASYRTLNMAAAVISKAKNPLILAGNGAIRANASEALTEFATALNIPVANTFMGKGVIPYTHPLALWAVGLQQRDLISCAFERSDLIIAVGYDLIEYSPKKWNPDGKLPIIHIGMTPAEIDSSYAPVVEVVGDITDSLIDILKRADRQNKPTPVTAGLKTEIRADYETYANDTGFPIKPQKLIYDLRQVMGPEDIAICDVGAHKMWMARQYHSDCPNTCIISNGFAAAGIAIPGAIAAKLVYPNKRIVAVTGDGGFMMNCQELETALRVGTPFVTLIFNDGGYGLIEWKQLNYFGTSSFIKFGNPDFVKFAESMGLKGYRVESTQDLIPTLEEAFRQEVPTVIDVPVDYGENLRLSQKSGDLSCQIWE
notes: as for B2
With B5 the K0.5 (purified protein [4]) was 0.046 ± 0.010 mM.

B6: MaKGD (Microcystis aeruginosa NIES-843; L467A) (protein)
chain: MGELNTAELLVKCLENEGVEYIFGLPGEENLDVLEALKNSSIKFITTRHEQGAAFMADVYGRLTGKAGVCLSTLGPGATNLMTGVADANLDGAPLVAITGQVGTDRMHIESHQYLDLVAMFAPVTKWNKQIVRPGITPEVVRRAFKTAQSEKPGAVHIDLPENIAAMAADGHPLPLDSQEKVYASYRTLNMAAAVISKAKNPLILAGNGAIRANASEALTEFATALNIPVANTFMGKGVIPYTHPLALWAVGLQQRDLISCAFERSDLIIAVGYDLIEYSPKKWNPDGKLPIIHIGMTPAEIDSSYAPVVEVVGDITDSLIDILKRADRQNKPTPVTAGLKTEIRADYETYANDTGFPIKPQKLIYDLRQVMGPEDIAICDVGAHKMWMARQYHSDCPNTCIISNGFAAMGIAIPGAIAAKLVYPNKRIVAVTGDGGFMMNCQELETALRVGTPFVTLIFNDGGYGAIEWKQLNYFGTSSFIKFGNPDFVKFAESMGLKGYRVESTQDLIPTLEEAFRQEVPTVIDVPVDYGENLRLSQKSGDLSCQIWE
notes: as for B2
B6 gave a K0.5 (purified protein [4]) of 0.026 ± 0.004 mM, a Km (purified protein [3]) of 1220 ± 510 µM and a kcat (purified protein [3]) of 2.7 ± 0.32 s⁻¹.

B7: MaKGD (Microcystis aeruginosa NIES-843; Y465A) (protein)
chain: MGELNTAELLVKCLENEGVEYIFGLPGEENLDVLEALKNSSIKFITTRHEQGAAFMADVYGRLTGKAGVCLSTLGPGATNLMTGVADANLDGAPLVAITGQVGTDRMHIESHQYLDLVAMFAPVTKWNKQIVRPGITPEVVRRAFKTAQSEKPGAVHIDLPENIAAMAADGHPLPLDSQEKVYASYRTLNMAAAVISKAKNPLILAGNGAIRANASEALTEFATALNIPVANTFMGKGVIPYTHPLALWAVGLQQRDLISCAFERSDLIIAVGYDLIEYSPKKWNPDGKLPIIHIGMTPAEIDSSYAPVVEVVGDITDSLIDILKRADRQNKPTPVTAGLKTEIRADYETYANDTGFPIKPQKLIYDLRQVMGPEDIAICDVGAHKMWMARQYHSDCPNTCIISNGFAAMGIAIPGAIAAKLVYPNKRIVAVTGDGGFMMNCQELETALRVGTPFVTLIFNDGGAGLIEWKQLNYFGTSSFIKFGNPDFVKFAESMGLKGYRVESTQDLIPTLEEAFRQEVPTVIDVPVDYGENLRLSQKSGDLSCQIWE
notes: as for B2
With B7 the K0.5 (purified protein [4]) was 0.090 ± 0.021 mM, the Km (purified protein [3]) was 1480 ± 270 µM and the kcat (purified protein [3]) was 1.23 ± 0.25 s⁻¹.

B8: MaKGD (Microcystis aeruginosa NIES-843; D462N) (protein)
chain: MGELNTAELLVKCLENEGVEYIFGLPGEENLDVLEALKNSSIKFITTRHEQGAAFMADVYGRLTGKAGVCLSTLGPGATNLMTGVADANLDGAPLVAITGQVGTDRMHIESHQYLDLVAMFAPVTKWNKQIVRPGITPEVVRRAFKTAQSEKPGAVHIDLPENIAAMAADGHPLPLDSQEKVYASYRTLNMAAAVISKAKNPLILAGNGAIRANASEALTEFATALNIPVANTFMGKGVIPYTHPLALWAVGLQQRDLISCAFERSDLIIAVGYDLIEYSPKKWNPDGKLPIIHIGMTPAEIDSSYAPVVEVVGDITDSLIDILKRADRQNKPTPVTAGLKTEIRADYETYANDTGFPIKPQKLIYDLRQVMGPEDIAICDVGAHKMWMARQYHSDCPNTCIISNGFAAMGIAIPGAIAAKLVYPNKRIVAVTGDGGFMMNCQELETALRVGTPFVTLIFNNGGYGLIEWKQLNYFGTSSFIKFGNPDFVKFAESMGLKGYRVESTQDLIPTLEEAFRQEVPTVIDVPVDYGENLRLSQKSGDLSCQIWE
notes: as for B2
With B8 the K0.5 (purified protein [4]) was 0.008 ± 0.001 mM, the Km (purified protein [3]) was 3920 ± 450 µM and the kcat (purified protein [3]) was 1.5 ± 0.36 s⁻¹.

B9: MiKGD (Microcystis aeruginosa NIES-4325) (protein)
chain: MGELNTAELLVKCLENEGVEYIFGLPGEENLDVLEALKNSSIKFITTRHEQGAAFMADVYGRLTGKAGVCLSTLGPGATNLMTGVADANLDGAPLVAITGQVGTDRMHIESHQYLDLVAMFAPVTKWNKQIVRPGITPEVVRRAFKTAQSEKPGAVHIDLPENIAAMPADGHPLPLDSQEKVYASYRTLNMAAAVISKAKNPLILAGNGAIRANASEALTEFATALNIPVANTFMGKGVIPYTHPLALWAVGLQQRDLISCAFDRSDLIIAVGYDLIEYSPKKWNPEGKLPIIHIGMTPAEIDSSYAPVVEVVGDITDSLIDILKRADRQNKPTPVTAGLKTEIRADYETYANDTGFPIKPQKLIYDLRQVMGPEDIVISDVGAHKMWMARQYHSDCPNTCIISNGFAAMGIAIPGAIAAKLVHPDKRVVAVTGDGGFMMNCQELETALRVGTPFVTLIFNDGGYGLIEWKQFNYFGTSSFIKFGNPDFVKFAESMGLKGYRVESAQDLIPILEEAFQQEVPTVIDVPVDYGENLRLSQKSGDLSCQIWE
notes: full length, pET28a (NdeI/XhoI), E. coli BL21(DE3) with chaperone plasmid pTf16; codon-optimised gene
Protein B9 has a K0.5 (purified protein [4]; half-saturation of activity) of 0.026 ± 0.006 mM, a Km (purified protein [3]) of 4470 ± 630 µM and a kcat (purified protein [3]) of 4.33 ± 0.37 s⁻¹. The kcat/Km (purified protein [3]) was 970 M⁻¹ s⁻¹.
